Legend:
Test in all cases: phage ELISA
[1] = target: T1, DGI-2 polypeptide (UniProt Q15004 1-111, limits assumed)
T1 construct: Soluble recombinant protein coated at 500 ng/well; vector tag of pIVEX2.3-MCS not described for this construct; also called KIAA0101
T1 sequence (looked up): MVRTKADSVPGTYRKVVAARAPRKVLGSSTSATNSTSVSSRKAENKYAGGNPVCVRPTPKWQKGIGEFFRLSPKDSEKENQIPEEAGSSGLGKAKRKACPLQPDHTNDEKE
Procedure: (§1) For analysis of individual target binders, colonies were picked and phage prepared as described above using helper phage, M13KO7. Ninety-six-well microtiter plates were coated with 500 ng/well of specific target protein, 500 ng/well lactate dehydrogenase (LDH) irrelevant or non-specific target, 500 ng/well of positive control antibody raised against ETAG, and negative control of non-fat milk powder-PBS 2% at 4° C. overnight. Plates were then blocked with 350 microliters/well PBS containing 2% non-fat milk for 1 hr at room temperature. One hundred microliters per well of phage from isolated clones were added and plates were incubated at room temperature for 2 hr after centrifuging samples for 20 minutes at 3500 rpm at 4° C. The phage solution was then removed, and the wells were washed three times with PBS at room temperature. Antibody raised against M13 conjugated to horseradish peroxidase (Pharmacia) was diluted 1:3000 in PBS-Tween and added to each well (100 µl/well). Incubation was for 1 hr at room temperature, followed by washing with PBS-(0.5%) Tween 3 times as described. Color was developed by addition of ABTS solution (100 µl/well; Boehringer, Indianapolis, Ind.). Plates were analyzed at 405 nm. A clone was considered "positive" if the $A405$ of the well was $\geq$2-fold over background.

[2] = target: T2, lactate dehydrogenase (LDH)
T2 construct: Coated at 500 ng/well as non-specific target; also called LDH polypeptide
Procedure: as §1

[3] = target: T3, antibody raised against ETAG
T3 construct: Coated at 500 ng/well; also called E-tag antibody
Procedure: as §1

B1: DGI-2-40F-3-C424 (peptide)
peptide: TVKFQGVVQERSRIAGFRYCGDHAVSWGLAGCPALRDKLQAAAGAPVPYPDPLEPRP
DGI-2 (OD) [1]: 5.5 OD | DGI-2/LDH [1]: 5.2 ratio | LDH (OD) [2]: 1.1 OD | ETAG (OD) [3]: 14.8 OD

WAASCFWGHVALGCGRNGQGAAAGAPVPYPDPLEPRP [DGI-2-20R-3-A11]
DGI-2 (OD) [1]: 6.2 OD | DGI-2/LDH [1]: 5.7 ratio | LDH (OD) [2]: 1.1 OD | ETAG (OD) [3]: 14.7 OD

RKGWGVFCIPGLRFCDWSDPAAAGAPVPYPDPLEPRP [DGI-2-20R-3-B4]
DGI-2 (OD) [1]: 8.4 OD | DGI-2/LDH [1]: 8.6 ratio | LDH (OD) [2]: 1 OD | ETAG (OD) [3]: 17.4 OD

VLQRSLWKDWVDGVMHGGGSRGVAAAGAPVPYPDPLEPRP [DGI-2-20R-3-A7]
DGI-2 (OD) [1]: 4.8 OD | DGI-2/LDH [1]: 5.1 ratio | LDH (OD) [2]: 0.9 OD | ETAG (OD) [3]: 13.9 OD

RDTTSQWSWISRGWEFPGWRAAAGAPVPYPDPLEPRP [DGI-2-20R-3-C2]
DGI-2 (OD) [1]: 6.2 OD | DGI-2/LDH [1]: 5.8 ratio | LDH (OD) [2]: 1.1 OD | ETAG (OD) [3]: 11.9 OD

FRMWVQSCFWGQPGTGCGEGAAAGAPVPYPDPLEPRP [DGI-2-20R-3-D2]
DGI-2 (OD) [1]: 7.9 OD | DGI-2/LDH [1]: 7.5 ratio | LDH (OD) [2]: 1.1 OD | ETAG (OD) [3]: 14.3 OD

EGNWFCAVFRGFCVGDRGPEAAAGAPVPYPDPLEPRP [DGI-2-20R-3-A1]
DGI-2 (OD) [1]: 7.1 OD | DGI-2/LDH [1]: 6.3 ratio | LDH (OD) [2]: 1.1 OD | ETAG (OD) [3]: 11.1 OD

GGGRESWGGGWFMGWGSGAGAAAGAPVPYPDPLEPRP [DGI-2-20R-3-A6]
DGI-2 (OD) [1]: 5.8 OD | DGI-2/LDH [1]: 5.9 ratio | LDH (OD) [2]: 1 OD | ETAG (OD) [3]: 17.7 OD

RERWGTAWNLWTEGVVDVRPAAAGAPVPYPDPLEPRP [DGI-2-20F-3-B5]
DGI-2 (OD) [1]: 6.1 OD | DGI-2/LDH [1]: 6.6 ratio | LDH (OD) [2]: 0.9 OD | ETAG (OD) [3]: 16.4 OD

DGKHLTKWSGRGWWSAWVGGAAAGAPVPYPDPLEPRP [DGI-2-20R-3-B12]
DGI-2 (OD) [1]: 5.7 OD | DGI-2/LDH [1]: 5.5 ratio | LDH (OD) [2]: 1 OD | ETAG (OD) [3]: 15.5 OD

B2: DGI-2-40F-3-D1044 (peptide)
peptide: DRVARLATPTAGTMAAGSLGYERTVGCDSQDWFRCVVEGLAAAGAPVPYPDPLEPRP
DGI-2 (OD) [1]: 7.9 OD | DGI-2/LDH [1]: 6.2 ratio | LDH (OD) [2]: 1.3 OD | ETAG (OD) [3]: 17.7 OD

VHSQGRMWAIPGLRGGTGASAAAGAPVPYPDPLEPRP [DGI-2-20R-3-D7]
DGI-2 (OD) [1]: 5.2 OD | DGI-2/LDH [1]: 5.3 ratio | LDH (OD) [2]: 1 OD | ETAG (OD) [3]: 18.7 OD

B3: DGI-2-40F-3-C8 (peptide)
peptide: YGTAGLFLRRACTMSDPGDPLGRRGYTGWGVLWDEWVTGSAAAGAPVPYPDPLEPRP
DGI-2 (OD) [1]: 5.7 OD | DGI-2/LDH [1]: 6 ratio | LDH (OD) [2]: 0.9 OD | ETAG (OD) [3]: 13.6 OD

WWERFVWGRPVDDGVVVMATAAAGAPVPYPDPLEPRP [DGI-2-20R-3-B1]
DGI-2 (OD) [1]: 6.3 OD | DGI-2/LDH [1]: 6.2 ratio | LDH (OD) [2]: 1 OD | ETAG (OD) [3]: 14.5 OD

LFSATGCALMSGFCLGSDGSAAAGAPVPYPDPLEPRP [DGI-2-20R-3-C1]
DGI-2 (OD) [1]: 8.2 OD | DGI-2/LDH [1]: 8.3 ratio | LDH (OD) [2]: 1 OD | ETAG (OD) [3]: 14 OD

LPQSRWLSEAWASWVDGVVDAAAGAPVPYPDPLEPRP [DGI-2-20F-4-F9]
DGI-2 (OD) [1]: 5.6 OD | DGI-2/LDH [1]: 5.9 ratio | LDH (OD) [2]: 1 OD | ETAG (OD) [3]: 19.6 OD

TIDVARRFGYGWWDLWLDGDAAAGAPVPYPDPLEPRP [DGI-2-20R-3-C3]
DGI-2 (OD) [1]: 7.9 OD | DGI-2/LDH [1]: 7 ratio | LDH (OD) [2]: 1.1 OD | ETAG (OD) [3]: 20.2 OD

B4: DGI-2-40F-4-F97 (peptide)
peptide: QVGGMTQVGATVLSVVTGRGSCDGEDAWYPPGVTVGLGLCAAAGAPVPYPDPLEPRP
DGI-2 (OD) [1]: 6.7 OD | DGI-2/LDH [1]: 6.4 ratio | LDH (OD) [2]: 1 OD | ETAG (OD) [3]: 14 OD

RDTMCGSVSWGIPGCEYSGMAAAGAPVPYPDPLEPRP [DGI-2-20R-4-G122]
DGI-2 (OD) [1]: 7.6 OD | DGI-2/LDH [1]: 7.1 ratio | LDH (OD) [2]: 1.1 OD | ETAG (OD) [3]: 13.9 OD

RRILPWSFPGCGRMCAAAGAPVPYPDPLEPRP [DGJ-2-20R-3-A10]
DGI-2 (OD) [1]: 6.2 OD | DGI-2/LDH [1]: 5.9 ratio | LDH (OD) [2]: 1.1 OD | ETAG (OD) [3]: 16.4 OD

RPVVCLAGLTLAQFGWVFPGWRGWSAAAGAPVPYPDPLEPRP [DGI-2-20C-3-C1039]
DGI-2 (OD) [1]: 4.7 OD | DGI-2/LDH [1]: 4.7 ratio | LDH (OD) [2]: 1 OD | ETAG (OD) [3]: 11.8 OD

SLECWAMPGMVVRLVGCDGPAAAGAPVPYPDPLEPRP [DGI-2-20R-4-H112]
DGI-2 (OD) [1]: 6.6 OD | DGI-2/LDH [1]: 6 ratio | LDH (OD) [2]: 1.1 OD | ETAG (OD) [3]: 12.3 OD

SWACGLLWPGECGSQVARRGAAAGAPVPYPDPLEPRP [DGI-2-20R-3-D127]
DGI-2 (OD) [1]: 6.7 OD | DGI-2/LDH [1]: 6.4 ratio | LDH (OD) [2]: 1 OD | ETAG (OD) [3]: 15.4 OD

QMSRVAFSPGESWRRWVEGVAAAGAPVPYPDPLEPRP [DGI-2-20R-3-A2]
DGI-2 (OD) [1]: 7.5 OD | DGI-2/LDH [1]: 7.5 ratio | LDH (OD) [2]: 1 OD | ETAG (OD) [3]: 14.2 OD

MGVVLECEGGWSIPGQTCYFAAAGAPVPYPDPLEPRP [DGI-2-20R-3-C7]
DGI-2 (OD) [1]: 5.1 OD | DGI-2/LDH [1]: 5.1 ratio | LDH (OD) [2]: 1 OD | ETAG (OD) [3]: 18 OD

MFQDVACDLWHSVRCLRRDVAAAGAPVPYPDPLEPRP [DGI-2-20R-3-B3]
DGI-2 (OD) [1]: 4.9 OD | DGI-2/LDH [1]: 4.8 ratio | LDH (OD) [2]: 1 OD | ETAG (OD) [3]: 16.1 OD

GWGCSVPGILCVGGHRQGGGAAAGAPVPYPDPLEPRP [DGI-2-20R-3-B11]
DGI-2 (OD) [1]: 5.9 OD | DGI-2/LDH [1]: 5.7 ratio | LDH (OD) [2]: 1 OD | ETAG (OD) [3]: 16.9 OD

WGCVFRQWASGSGAGCARRHAAAGAPVPYPDPLEPRP [DGI-2-20R-3-D9]
DGI-2 (OD) [1]: 6.7 OD | DGI-2/LDH [1]: 6.4 ratio | LDH (OD) [2]: 1 OD | ETAG (OD) [3]: 19.7 OD

B5: DGI-2-40F-4-F122 (peptide)
peptide: RSQVRVVSRERSTPVLHRIECLLFSGWCVTSGSDEGVVWGAAAGAPVPYPDPLEPRP
DGI-2 (OD) [1]: 4.7 OD | DGI-2/LDH [1]: 5.7 ratio | LDH (OD) [2]: 0.8 OD | ETAG (OD) [3]: 8.1 OD

VLGADAGMIWFMDGCGIRCRAAAGAPVPYPDPLEPRP [DGI-2-20R-4-E6]
DGI-2 (OD) [1]: 7 OD | DGI-2/LDH [1]: 7 ratio | LDH (OD) [2]: 1 OD | ETAG (OD) [3]: 19.1 OD

QLDCLVWGLPGLRCDRPLEQAAAGAPVPYPDPLEPRP [DGI-2-20R-3-B10]
DGI-2 (OD) [1]: 7.8 OD | DGI-2/LDH [1]: 7.6 ratio | LDH (OD) [2]: 1 OD | ETAG (OD) [3]: 17 OD

VSFAHDWGRWWYQWEVGAAAGAPVPYPDPLEPRP [DGI-2-20R-4-G22]
DGI-2 (OD) [1]: 7.9 OD | DGI-2/LDH [1]: 6.5 ratio | LDH (OD) [2]: 1.2 OD | ETAG (OD) [3]: 12.9 OD

DQRVVGSGWFERLRNWYDRAAAAGAPVPYPDPLEPRP [DGI-2-20R-4-G99]
DGI-2 (OD) [1]: 7.5 OD | DGI-2/LDH [1]: 7.2 ratio | LDH (OD) [2]: 1 OD | ETAG (OD) [3]: 14.1 OD

RSIRLQLIDEACQFFDGLCTAAAGAPVPYPDPLEPRP [DGI-2-20R-3-A8]
DGI-2 (OD) [1]: 6.9 OD | DGI-2/LDH [1]: 6.4 ratio | LDH (OD) [2]: 1.1 OD | ETAG (OD) [3]: 15.3 OD

VVRQGCMAFSGLCSGVTESEAAAGAPVPYPDPLEPRP [DGI-2-20R-3-C8]
DGI-2 (OD) [1]: 5.6 OD | DGI-2/LDH [1]: 5.3 ratio | LDH (OD) [2]: 1.1 OD | ETAG (OD) [3]: 21.1 OD

From patent publication US7056679 (ANTYRA, dated 2006)
